Tests used:
Format in all cases: biochemical
Conditions in all cases: EK-activated protease; substrate 500 uM; pH 7.8; 37° C.; 120 minutes
[1] = Chromogenic amidolytic assay, release of pNA from H-D-Val-Leu-Lys-pNA
Experimental: (§1) Cells were lysed on ice in 20 mM Tris (pH7.4), 150 mM NaCl, 1% Triton X-100, 1 mM EDTA, 1 mM EGTA, 1 mM PMSF, leupeptin (1 μg/ml), and pepstatin (1 μg/ml). Cell lysates were mixed with anti-FLAG M2 affinity gel (Eastman Kodak Co., New Haven, Conn.) and bound at 4° C. for 3 hours with gentle rotation. The zymogen-bound resin was washed 3 times with TBS buffer (50 mM Tris-HCl, 150 mM NaCl at a final pH of 7.5), and eluted by competition with FLAG peptide (100 μg/ml) in TBS buffer. The eluted zymogen was dialyzed overnight against TBS in Spectra/Por membrane (MWCO: 12,000-14,000) (Spectra Medical Industries, Inc., Huston, Tex.). […] Eluted protein concentration was determined by a Micro BCA Kit (Pierce, Rockford, Ill.) using bovine serum albumin as a standard. Amidolytic activities of the activated protease was monitored by release of para-nitroaniline (pNA) from the synthetic substrates indicated in Table 2. […] Release of pNA was measured over 120 minutes at 37° C. on a micro-plate reader (Molecular Devices, Menlo Park, Calif.) with a 405 nm absorbance filter. The initial reaction rates (Vmax, mOD/min) were determined from plots of absorbance versus time using Softmax (Molecular Devices, Menlo Park, Calif.). […] No measurable chromogenic amidolytic activity was detected with the purified unactivated zymogens. […]

[2] = Chromogenic amidolytic assay, release of pNA from H-DL-Val-Leu-Arg-pNA
Experimental: as §1

[3] = Chromogenic amidolytic assay, release of pNA from H-D-Lys(CBO)-Pro-Arg-pNA
Experimental: as §1

[4] = Chromogenic amidolytic assay, release of pNA from H-D-Pro-HHT-Arg-pNA
Experimental: as §1

B1: PFEK-MH2-6XHIS: catalytic domain of human protease MH2 in the PFEK1-6XHIS-TAG activation construct (SEQ.ID.NO.:54), EK-activated (protein)
chain: MDSKGSSQKSRLLLLLVVSNLLLCQGVVSDYKDDDDVDAAALAAPFDDDDKIVGGYNCLEPHSQPWQAALVMENELFCSGVLVHPQWVLSAAHCFQNSYTIGLGLHSLEADQEPGSQMVEASLSVRHPEYNRPLLANDLMLIKLDESVSESDTIRSISIASQCPTAGNSCLVSGWGLLANGRMPTVLQCVNVSVVSEEVCSKLYDPLYHPSMFCAGGGHDQKDSCNGDSGGPLICNGYLQGLVSFGKAPCGQVGVPGVYTNLCKFTEWIEKTVQASSRHHHHHH
specific activity, H-D-Val-Leu-Lys-pNA [1]: 0.121 nmole pNA produced /min/ug protein
specific activity, H-DL-Val-Leu-Arg-pNA [2]: 0.058 nmole pNA produced /min/ug protein
specific activity, H-D-Lys(CBO)-Pro-Arg-pNA [3]: 0.893 nmole pNA produced /min/ug protein
specific activity, H-D-Pro-HHT-Arg-pNA [4]: 0.052 nmole pNA produced /min/ug protein
